From publication PMC4683182, “Global Regulator IscR Positively Contributes to Antimonite Resistance and Oxidation in Comamonas testosteroni S44”
Positions count from the first letter of the chain named.

T1: IscR (His-tagged) (Comamonas testosteroni S44, UniProt A0A0L7MDB4 1-178)
T1 sequence: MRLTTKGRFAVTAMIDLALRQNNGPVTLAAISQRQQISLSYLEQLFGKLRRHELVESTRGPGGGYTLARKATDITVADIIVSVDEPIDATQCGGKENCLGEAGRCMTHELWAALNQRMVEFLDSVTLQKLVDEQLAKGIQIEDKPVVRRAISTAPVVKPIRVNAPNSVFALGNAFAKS

B1: Site A* 30-bp (dsDNA)
DNA 1: CTGTTACCCGACAAAGCTGGCGGGGAATGT
DNA 2: ACATTCCCCGCCAGCTTTGTCGGGTAACAG
B2: Site B 30-bp (dsDNA)
DNA 1: GATATACTCGCCTCAAACACTCAACAACAA
DNA 2: TTGTTGTTGAGTGTTTGAGGCGAGTATATC
B3: Site A 30-bp (dsDNA)
DNA 1: CTGTTACCCGACAAAATTGATGGGGAATGT
DNA 2: ACATTCCCCATCAATTTTGTCGGGTAACAG
B4: Site B* 30-bp (dsDNA)
DNA 1: B2 DNA 1 with A4G, T5C, A6G
DNA 2: B2 DNA 2 with T25C, A26G, T27C

Each binder was assayed against T1, IscR (His-tagged) (assay: EMSA; 100 mM HEPES pH 7.6, 5 mM EDTA, 50 mM (NH4)2SO4, 5 mM DTT, 1% (w/v) Tween 20, 150 mM KCl; 30 min at 30 C; 20 uL; 6% native PAGE, ethidium bromide). Settings: protein: recombinant; tags: His-tag (pET-28a(+)); chain copies: 2.

Q: Does B1 bind?
A: no binding

Q: Does B2 bind?
A: binds

Q: Does B3 bind?
A: binds

Q: Does B4 bind?
A: no binding
